# “Also recorded” adds a separate entry of the source.
# Key:
# HSV = conditions: ref [33]; cited from earlier work
# Source text: Nonetheless, the link between HSV and H ...
# [1] = system: HPV16 PsV infection of HeLa cells; conditions: PsV infectivity, FBS present; ref [38]; cited from earlier work
# Experimental: SLPI has shown anti-bacterial and anti-fungal activity aside from its noted anti-protease activity (reviewed in [68]). […] Concentrations in cervical mucosal fluids are commonly reported at 1 µg/ml, but are likely to be more concentrated at the cell surface. In addition, SLPI levels in cervical mucus have been measured midcycle as high as ...
# HIV-1 = conditions: macrophages; ref [34]; cited from earlier work
# Source text: A particular local immune event that has been well studied in the context of HPV infection is mucosal co-infection with herpes simplex virus (HSV). Historically, in the 1960s and 1970s, HSV-2 infection was thought to be a possible causative agent for cervical cancer, [31]. However, the role of HSV-2 in cervical cancer began to be questioned when HSV-2 DNA was not consistently found in cervical cancer tissues. Subsequently, HPV DNA was detected in the overwhelming majority of cervical cancer tissue and determined to be the causative agent. […] To test this hypothesis, the effect of SLPI and antibody inhibition of A2t on HPV16 infection of epithelial cel ...
# [2] = system: HPV16 PsV infection of HaCaT cells; assay: HPV16 PsV infection of HaCaT cells (GFP, flow cytometry); type: cell-based, human
# Experimental: (§1) HeLa cells (ATCC, Manassas, VA) are human epithelial cells derived from cervical cancer, and were maintained in complete media (IMDM, 10% FBS, 1X PenStrep) at 37°C with 5% CO2 (Lonza, Walkersville, MD). HaCaT cells (Cell Lines Service, Eppelheim, Germany) are in vitro spontaneously transformed human keratinocytes derived from histologically normal skin [75] and were maintained in Defined Keratinocyte Serum-Free Media (KSFM) (Invitrogen, Carlsbad, CA) with manufacturer provided KSFM growth supplement (including insulin, EGF, and FGF) at 37°C with 5% CO2.
# Wildtype HPV16 pseudovirions containing GFP reporter were produced by cotransfection of 293TT cells with plasmids encoding codon-optimized HPV16 L1 and L2 and a GFP reporter plasmid (pCIneoGFP) following published procedures. The infectious titer of PsV preparations (in infectious units/mL) was determined by flow cytometric analysis of 293TT cells treated with varying doses of PsV vector stock. Neutralization of PsV were validated in infection assays via pre-incubation with H16.V5 or H16.E70 prior to cellular exposure, and minimal infection rates of less than 1% were observed. To produce pseudovirions with a mutated L2 (108–126) region, site-directed mutagenesis was performed using overlapping mutated primers on the bicistronic packaging HPV16 pseudovirion plasmid p16sheLL as a template. Forward primer 5′-[…]-3′ and reverse primer 5′-[…]-3′ encoding the amino acid substitution of GGDD for LVEE in the L2 capsid region aa 108–111 were used with the QuikChange II XL Site-Directed Mutagenesis Kit (Stratagene, Cedar Creek, TX) according to manufacturer’s instructions. The entire L1 and L2 ORFs of the resulting plasmid were sequenced to confirm mutagenesis of the 108–111 aa L2 region and that no other unexpected mutations were introduced. HPV16 L1–L2(GGDD) PsV containing GFP reporter plasmid were produced as described above for wildtype HPV16 PsV. Confirmation and quantitation of reporter plasmid DNA encapsidation was performed using quantitative real-time PCR following plasmid DNA isolation from pseudovirion preparations by phenol chloroform extraction and ethanol precipitation. L1 content was quantitated by Coomassie Blue staining next to BSA standards following SDS-PAGE. The infectious titer of L2 mutant PsV were determined on 293TT cells as described above for WT PsV.
# HaCaT cells seeded at 3×10^4 cells/well or HeLa cells seeded at 2×10^4 cells/well were incubated overnight in 24-well plates at 37°C. The cells were subsequently incubated with wildtype HPV16 PsV containing a pCIneo-GFP vector at an MOI 100 for HaCaT or MOI of 1 for HeLa. The MOIs were chosen for each cell type that achieved 15–25% GFP-positive cells. Infectivity was scored 48 h post infection by enumerating GFP+ cells by flow cytometry. […]
# A2t = assay: ELISA binding to immobilised A2t; parameters: species or system human; conditions: 500 ng A2t coated, 400 ng PsV, H16.V5 or anti-SLPI detection
# Experimental: For assays to determine accessibility of L2_108–120 epitope on capsid surface, 96-well Microlon ELISA plates (USA Scientific, Ocala, FL) were incubated with 500 ng of HPV16 L1 VLP, HPV16 L1L2 VLP or HPV16 PsV in 100 µL PBS overnight at 4°C. The plate was washed with PBST ([…]) and blocked with 200 µL of PBS containing 3% BSA for 2 h at RT. The plate was washed with PBST and incubated with 1∶1000 16L2.4B4 (anti-L2_108–120) or 1∶5000 H16.V5 (anti-L1) in PBST with 1% BSA for 2 h at RT. The plate was washed and incubated with 1∶5000 rabbit-anti-mouse HRP in PBST with 1% BSA for 1 h at RT. The plate was washed, and 100 µL of the HRP substrate (o-phenylenediamine) was added. The absorbance was measured at 490 nm with a Hidex Chameleon plate reader. In control experiments, no VLP or PsV were added, and stained with primary, secondary, or both antibodies and minimal absorbance was seen. For assays to determine in vitro binding capacity of HPV16 capsids to purified A2t protein, 500 ng of purified A2t was coated separately on ELISA plates overnight at 4°C. […] Bound PsV were detected with conformational anti-L1 H16.V5 antibody, followed by anti-mouse IgG HRP antibody conjugate. Bound SLPI was detected with goat anti-SLPI antibody, followed by anti-goat IgG HRP antibody conjugate and addition of substrate.
# [3] = system: HPV16 PsV infection of HeLa cells; assay: HPV16 PsV infection of HeLa cells (GFP, flow cytometry); type: cell-based, human; conditions: presence of FBS during SLPI incubation and PsV infection; data not shown
# Experimental: as §1
# Wildtype HPV16 pseudovirions containing GFP reporter were produced by cotransfection of 293TT cells with plasmids encoding codon-optimized HPV16 L1 and L2 and a GFP reporter plasmid (pCIneoGFP) following published procedures. The infectious titer of PsV preparations (in infectious units/mL) was determined by flow cytometric analysis of 293TT cells treated with varying doses of PsV vector stock. […] Confirmation and quantitation of reporter plasmid DNA encapsidation was performed using quantitative real-time PCR following plasmid DNA isolation from pseudovirion preparations by phenol chloroform extraction and ethanol precipitation. L1 content was quantitated by Coomassie Blue staining next to BSA standards following SDS-PAGE. The infectious titer of L2 mutant PsV were determined on 293TT cells as described above for WT PsV. […]
molecule,measurement,setting,value
"secretory leukocyte protease inhibitor (protein, endogenous annexin A2 ligand) SGKSFKAGVCPPKKSAQCLRYKKPECQSDWQCPGKKRCCPDTCGIKCLDPVDTPNPTRRKPGKCPVTYGQCLMLNPPNFCEMDGQCKRDLKCCMGMCGKSCVSPVKA",inhibition of HSV infection,HSV,inhibit HSV infection
same,"HPV16 infection of HeLa, SLPI in presence of FBS",[1],no reduction in HPV16 infection
same,inhibition of HIV-1 infection,HIV-1,inhibit HIV-1 infection of macrophages; also recorded: inhibits the infection of HIV-1
same,"pseudo-infection, 25 µg/mL","[2]; 25 µg/mL SLPI vs negative and BSA controls, serum free",significant decrease in pseudo-infection
same,"pseudo-infection, 50 µg/mL","[2]; 50 µg/mL SLPI vs negative and BSA controls, serum free",pseudo-infection further decreased
same,decrease in pseudo-infection,"[2]; 25–50 µg/mL SLPI, 1 h at 4°C prior to PsV, serum free, vs untreated HaCaT cells, 48 h",60–80%
same,SLPI inhibition of HPV16 infection,"[2]; HaCaT cells, discussion",can inhibit HPV16 infection
same,binding to A2t (absorbance at 490 nm),A2t,significant binding
same,"PsV infection, presence of FBS",[3],no reduced infection; also recorded: eliminated the blocking effect of SLPI completely
